According to article doi:10.1101/2020.02.24.961524:

Target: N-terminally SNAP-tagged GLP-1R (glucagon-like peptide-1 receptor) (UniProt P43220)
Test: FRET or BRET

Chain of UniProt P43220 (P43220 24-463): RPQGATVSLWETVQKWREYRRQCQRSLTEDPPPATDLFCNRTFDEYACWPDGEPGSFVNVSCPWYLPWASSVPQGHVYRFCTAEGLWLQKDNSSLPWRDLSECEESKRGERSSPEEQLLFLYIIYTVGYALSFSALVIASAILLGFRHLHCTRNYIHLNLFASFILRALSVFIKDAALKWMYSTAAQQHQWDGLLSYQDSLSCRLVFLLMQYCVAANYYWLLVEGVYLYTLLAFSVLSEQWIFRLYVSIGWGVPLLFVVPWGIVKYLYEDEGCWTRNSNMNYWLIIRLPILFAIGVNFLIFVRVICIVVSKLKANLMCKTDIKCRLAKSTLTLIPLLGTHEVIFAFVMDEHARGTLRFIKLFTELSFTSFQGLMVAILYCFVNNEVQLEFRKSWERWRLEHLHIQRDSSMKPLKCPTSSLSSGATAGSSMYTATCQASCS

For “exendin-4 (from UniProt P26349 48-87) (peptide)”, the fold affinity relative to GLP-1 was 5 fold.
